Measured values from US20140161799A1 (ARCH ONCOLOGY, published 2014).
Substitutions are numbered along the chain they refer to.

Legend:
Assay in all cases: flow cytometry on RBCs, antibody 10 ng/ml
[1] = molecular target: T1, mouse CD47 (mouse, UniProt Q61735 19-303)
T1 construct: whole, on cells; also called CD47 on mouse red blood cells
T1 sequence (looked up): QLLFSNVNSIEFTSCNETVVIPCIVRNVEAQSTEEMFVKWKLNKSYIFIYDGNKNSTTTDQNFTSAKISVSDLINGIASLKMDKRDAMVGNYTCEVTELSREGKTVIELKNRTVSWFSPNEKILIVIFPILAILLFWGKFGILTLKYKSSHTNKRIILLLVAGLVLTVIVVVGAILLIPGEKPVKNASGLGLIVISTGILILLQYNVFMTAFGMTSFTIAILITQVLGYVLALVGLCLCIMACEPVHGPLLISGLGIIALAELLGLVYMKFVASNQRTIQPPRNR
Method: (§1) Cross species reactivity of humanized antibodies of the present invention is determined using freshly isolated red blood cells (RBCs), which display CD47 on their surface, from human, mouse, rat, and pig according to the methods disclosed in Kamel et al. (2010) Blood. Transfus. 8(4):260-266.
(§2) RBCs are incubated for 60 minutes on ice with tissue culture supernatants containing the secreted humanized antibodies at a concentration of 10 ng/ml in a solution of phosphate buffered saline, pH 7.2, 2.5 mM EDTA (PBS+E). Cells are then washed with cold PBS+E, and incubated for an additional hour on ice with FITC labeled donkey anti-human antibody (Jackson Immuno Research Labs, West Grove, Pa.; Catalogue #709-096-149) in PBS+E. Cells are then washed with PBS+E, and antibody binding is analyzed using a BD FACSAria Cell Sorter (Becton Dickinson) or a C6 Accuri Flow Cytometer (Becton Dickinson). Antibody binding is quantitated by comparison of mean fluorescence values relative to that of chimeric antibody >VxP037-01LC (SEQ ID NO:7))/>VxP037-01HC (SEQ ID NO:57). The mean fluorescence value for each antibody is divided by the mean fluorescence value for the chimeric antibody.

[2] = molecular target: T2, pig CD47 (pig, UniProt Q9GKE8 19-303)
T2 construct: whole, on cells; also called CD47 on pig red blood cells
T2 sequence (looked up): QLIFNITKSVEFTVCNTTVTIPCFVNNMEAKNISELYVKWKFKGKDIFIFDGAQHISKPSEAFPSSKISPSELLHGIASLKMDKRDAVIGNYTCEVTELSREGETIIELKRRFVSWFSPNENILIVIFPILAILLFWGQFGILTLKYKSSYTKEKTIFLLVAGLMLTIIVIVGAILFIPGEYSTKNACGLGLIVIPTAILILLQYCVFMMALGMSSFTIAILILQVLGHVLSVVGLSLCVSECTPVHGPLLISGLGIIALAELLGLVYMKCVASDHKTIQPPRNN
Method: as §1, §2

[3] = molecular target: T3, rat CD47 (rat, UniProt P97829 19-303)
T3 construct: whole, on cells; also called CD47 on rat red blood cells
T3 sequence (looked up): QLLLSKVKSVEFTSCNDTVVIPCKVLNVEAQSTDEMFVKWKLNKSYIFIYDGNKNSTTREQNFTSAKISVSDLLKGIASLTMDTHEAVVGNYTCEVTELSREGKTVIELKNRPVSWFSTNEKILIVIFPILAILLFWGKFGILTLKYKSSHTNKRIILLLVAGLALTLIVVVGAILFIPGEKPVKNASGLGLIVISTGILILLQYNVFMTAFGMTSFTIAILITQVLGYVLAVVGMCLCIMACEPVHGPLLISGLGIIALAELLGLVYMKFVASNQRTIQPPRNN
Method: as §1, §2

[4] = molecular target: T4, human CD47 (human, UniProt Q08722 19-323)
T4 construct: whole, on cells; also called CD47 on human red blood cells
Method: as §1, §2

T4 sequence (Q08722 19-323): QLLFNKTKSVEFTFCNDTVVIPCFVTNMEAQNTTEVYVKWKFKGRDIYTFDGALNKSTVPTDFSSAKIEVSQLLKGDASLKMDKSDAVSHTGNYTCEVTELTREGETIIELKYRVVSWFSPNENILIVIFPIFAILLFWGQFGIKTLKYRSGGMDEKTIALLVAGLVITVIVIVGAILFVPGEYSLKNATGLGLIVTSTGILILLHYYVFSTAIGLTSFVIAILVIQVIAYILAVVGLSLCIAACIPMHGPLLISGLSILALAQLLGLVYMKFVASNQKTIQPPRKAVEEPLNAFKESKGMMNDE

B1: pVxK7b-037-hum02-LC/pVxK7b-037-hum02-HC (antibody, human IgG1, V domains shown)
VH: QVQLQESGPGLVKPSQTLSLTCTVSGYTFTNYYVFWVRQARGQRLEWIGDINPVNGDTNFNEKFKNRVTISADKSISTAYLQWSSLKASDTAMYYCARGGYTMDYWGQG
VL: DVVMTQSPLSLPVTLGQPASISCRSSQSLVHSNGNTYLHWYQQKPGQAPRLLIYKVSYRFSGVPSRFSGSGSGTEFTLTISSLQPDDFATYYCSQNTHVPRTFGQG
notes: Full-length human IgG1/kappa in CHO supernatant; Variable entries end within framework 4 (...FGQG / ...WGQG); also called Clone 2
[1]
  mean fluorescence relative to chimeric antibody: 1.2 fold of chimera
[2]
  mean fluorescence relative to chimeric antibody: 1.2 fold of chimera
[3]
  mean fluorescence relative to chimeric antibody: 2.6 fold of chimera
[4]
  mean fluorescence relative to chimeric antibody: 1 fold of chimera

B2: pVxK7b-037-hum19-LC/pVxK7b-037-hum19-HC (antibody, human IgG1, V domains shown)
VH: EVQLVQSGAEVKKPGESLRISCKGSGYTFTNYYVFWIRQSPSRGLEWLGDINPVNGDTNFNEKFKNRVTITADKSTSTAYMELSSLRSEDTAVYYCARGGYTMDYWGQG
VL: DVVMTQSPLSLPVTLGQPASISCRSSQSLVHSNGNTYLHWYQQKPGKAPKLLIYKVSYRFSGVPDRFSGSGSGTDFTLKISRVEAEDVGVYYCSQNTHVPRTFGQG
notes: Full-length human IgG1/kappa in CHO supernatant; Variable entries end within framework 4 (...FGQG / ...WGQG); also called Clone 19
[1]
  mean fluorescence relative to chimeric antibody: 1 fold of chimera
[2]
  mean fluorescence relative to chimeric antibody: 1.3 fold of chimera
[3]
  mean fluorescence relative to chimeric antibody: 2.6 fold of chimera
[4]
  mean fluorescence relative to chimeric antibody: 0.7 fold of chimera

B3: pVxK7b-037-hum08-LC/pVxK7b-037-hum08-HC (antibody, human IgG1, V domains shown)
VH: QITLKESGPTLVKPTQTLTLTCTFSGYTFTNYYVFWIRQSPSRGLEWLGDINPVNGDTNFNEKFKNRFTISRDNAKNSLYLQMNSLRAEDTAVYYCARGGYTMDYWGQG
VL: B2 VL with V2I, S7T, L15P, Q17E
notes: Full-length human IgG1/kappa in CHO supernatant; Variable entries end within framework 4 (...FGQG / ...WGQG); also called Clone 8
[1]
  mean fluorescence relative to chimeric antibody: 0.7 fold of chimera
[2]
  mean fluorescence relative to chimeric antibody: 0.8 fold of chimera
[3]
  mean fluorescence relative to chimeric antibody: 1.2 fold of chimera
[4]
  mean fluorescence relative to chimeric antibody: 0.7 fold of chimera

B4: pVxK7b-037-hum23-LC/pVxK7b-037-hum23-HC (antibody, human IgG1, V domains shown)
VH: QVQLQESGPGLVKPSQTLSLTCTVSGYTFTNYYVFWVRQARGQRLEWIGDINPVNGDTNFNEKFKNRLTISKDTSKNQVVLTMTNMDPVDTATYYCARGGYTMDYWGQG
VL: B2 VL with V2I, S7T, L15P, Q17E
notes: Full-length human IgG1/kappa in CHO supernatant; Variable entries end within framework 4 (...FGQG / ...WGQG); also called Clone 23
[1]
  mean fluorescence relative to chimeric antibody: 1.4 fold of chimera
[2]
  mean fluorescence relative to chimeric antibody: 1.7 fold of chimera
[3]
  mean fluorescence relative to chimeric antibody: 3.3 fold of chimera
[4]
  mean fluorescence relative to chimeric antibody: 1.2 fold of chimera

B5: pVxK7b-037-hum05-LC/pVxK7b-037-hum05-HC (antibody, human IgG1, V domains shown)
VH: QVQLQESGPGLVKPSQTLSLTCTVSGYTFTNYYVFWVRQAPGKGLEWVSDINPVNGDTNFNEKFKNRVTISVDTSKNQFSLKLSSVTAADTAVYYCARGGYTMDYWGQG
VL: B2 VL with V2I, S7T, L15P, Q17E, Q42L, K47Q, A48S, K50Q
notes: Full-length human IgG1/kappa in CHO supernatant; Variable entries end within framework 4 (...FGQG / ...WGQG); also called Clone 5
[1]
  mean fluorescence relative to chimeric antibody: 1 fold of chimera
[2]
  mean fluorescence relative to chimeric antibody: 1.2 fold of chimera
[3]
  mean fluorescence relative to chimeric antibody: 2.2 fold of chimera
[4]
  mean fluorescence relative to chimeric antibody: 1 fold of chimera

B6: pVxK7b-037-hum03-LC/pVxK7b-037-hum03-HC (antibody, human IgG1, V domains shown)
VH: B2 VH with I37V, S40A, P41R, S42G, R43Q, G44R, L48I
VL: B2 VL
notes: Full-length human IgG1/kappa in CHO supernatant; Variable entries end within framework 4 (...FGQG / ...WGQG); also called Clone 3
[1]
  mean fluorescence relative to chimeric antibody: 0.9 fold of chimera
[2]
  mean fluorescence relative to chimeric antibody: 0.9 fold of chimera
[3]
  mean fluorescence relative to chimeric antibody: 1.7 fold of chimera
[4]
  mean fluorescence relative to chimeric antibody: 0.7 fold of chimera

B7: pVxK7b-037-hum09-LC/pVxK7b-037-hum09-HC (antibody, human IgG1, V domains shown)
VH: B4 VH
VL: B2 VL
notes: Full-length human IgG1/kappa in CHO supernatant; Variable entries end within framework 4 (...FGQG / ...WGQG); also called Clone 9
[1]
  mean fluorescence relative to chimeric antibody: 1.4 fold of chimera
[2]
  mean fluorescence relative to chimeric antibody: 1.6 fold of chimera
[3]
  mean fluorescence relative to chimeric antibody: 3.7 fold of chimera
[4]
  mean fluorescence relative to chimeric antibody: 1.2 fold of chimera

B8: pVxK7b-037-hum13-LC/pVxK7b-037-hum13-HC (antibody, human IgG1, V domains shown)
VH: B2 VH
VL: B2 VL with V2I, S7T, L15P, Q17E
notes: Full-length human IgG1/kappa in CHO supernatant; Variable entries end within framework 4 (...FGQG / ...WGQG); also called Clone 13
[1]
  mean fluorescence relative to chimeric antibody: 1.3 fold of chimera
[2]
  mean fluorescence relative to chimeric antibody: 1.4 fold of chimera
[3]
  mean fluorescence relative to chimeric antibody: 3.1 fold of chimera
[4]
  mean fluorescence relative to chimeric antibody: 1.2 fold of chimera
